{"source": "paper PMC8187723", "target": "recombinant human MXRA8-Fc fusion protein (UniProt Q9BRK3)", "conditions": "37 °C; n = 2; parent: est. 19; read off a plot", "note": "pKd: −log10 of the molar value.", "data": [{"substance": "Ross River virus T48, CPER-recovered wild type, purified virus (E1/E2 envelope glycoproteins on the virion) E1:N141Q", "values": [{"measurement": "pKd", "value": 7.21}]}, {"substance": "Ross River virus T48, CPER-recovered wild type, purified virus (E1/E2 envelope glycoproteins on the virion) E1:P226A", "values": [{"measurement": "pKd", "value": 7.70}]}, {"substance": "Ross River virus T48, CPER-recovered wild type, purified virus (E1/E2 envelope glycoproteins on the virion) E1:S98A", "values": [{"measurement": "pKd", "value": 7.52}]}, {"substance": "Ross River virus T48, CPER-recovered wild type, purified virus (E1/E2 envelope glycoproteins on the virion) E2:A71D", "values": [{"measurement": "pKd", "value": 6.96}]}, {"substance": "Ross River virus T48, CPER-recovered wild type, purified virus (E1/E2 envelope glycoproteins on the virion) E2:H64A", "values": [{"measurement": "pKd", "value": 7.21}]}]}
